Results reported in patent publication US20210130474A1 (DRAGONFLY THERAPEUTICS, published 2021).

Key:
[1] = target: T1, CAIX expressed on human renal cell carcinoma line A498 (human, UniProt Q16790 38-459); assay: cell-based or functional assay
[2] = target: T1, CAIX expressed on human renal cell …; assay: flow cytometry on A498 cells, MFI fold over background
Source text: Human renal cell carcinoma line A498 expressing CAIX was used to assay the binding of TriNKETs to the tumor associated antigen CAIX.

| Binder | specific lysis of A498 target cells by rested KHYG-1 cells (DELFIA cytotoxicity assay), increase over co-culture without TriNKET [1] [%] | binding result [2] |
| --- | --- | --- |
| A49-TriNKET-CAIX (ADI-27749 and a CAIX-binding domain) (bispecific antibody, V domains shown) VH 1: EVQLVESGGGLVKPGGSLRLSCAASGFTFSSYSMNWVRQAPGKGLEWVSSISSSSSYIYYADSVKGRFTISRDNAKNSLYLQMNSLRAEDTAVYYCARGAPMGAAAGWFDPWGQGTLVTVSS VL 1: DIQMTQSPSSVSASVGDRVTITCRASQGISSWLAWYQQKPGKAPKLLIYAASSLQSGVPSRFSGSGSGTDFTLTISSLQPEDFATYYCQQGVSFPRTFGGGTKVEIK VH 2: QVELVESGGGLVQPGGSLRLSCAASGFTFSSYGMSWVRQAPGKGLEWVSGISSLGSTTYYADSVKGRFTISRDNSKNTLYLQMNSLRAEDTAVYYCARTGSPGTFMHGDHWGQGTLVTVSS VL 2: DIQMTQSPSSLSASVGDRVTITCRASQDINNYLSWYQQKPGKAPKLLIYGASNLQSGVPSRFSGSGSGTDFTLTISSLQPEDFAVYYCQQYYGRPTTFGQGTKVEIK | ~20 | – |
| F47-TriNKET-CAIX (ADI-29447 and a CAIX-binding domain) (bispecific antibody, V domains shown) VH 1: QVQLQQWGAGLLKPSETLSLTCAVYGGSFSGYYWSWIRQPPGKGLEWIGEIDHSGSTNYNPSLKSRVTISVDTSKNQFSLKLSSVTAADTAVYYCARARGPWSFDPWGQGTLVTVSS VL 1: DIQMTQSPSTLSASVGDRVTITCRASQSISSWLAWYQQKPGKAPKLLIYKASSLESGVPSRFSGSGSGTEFTLTISSLQPDDFATYYCQQYDTFITFGGGTKVEIK VH 2: QVELVESGGGLVQPGGSLRLSCAASGFTFSSYGMSWVRQAPGKGLEWVSGISSLGSTTYYADSVKGRFTISRDNSKNTLYLQMNSLRAEDTAVYYCARTGSPGTFMHGDHWGQGTLVTVSS VL 2: DIQMTQSPSSLSASVGDRVTITCRASQDINNYLSWYQQKPGKAPKLLIYGASNLQSGVPSRFSGSGSGTDFTLTISSLQPEDFAVYYCQQYYGRPTTFGQGTKVEIK | – | binds |
| E79-TriNKET-CAIX (ADI-29379 and a CAIX-binding domain) (bispecific antibody, V domains shown) VH 1: QVQLVQSGAEVKKPGASVKVSCKASGYTFTSYYMHWVRQAPGQGLEWMGIINPSGGSTSYAQKFQGRVTMTRDTSTSTVYMELSSLRSEDTAVYYCARGAPNYGDTTHDYYYMDVWGKGTTVTVSS VL 1: EIVMTQSPATLSVSPGERATLSCRASQSVSSNLAWYQQKPGQAPRLLIYGASTRATGIPARFSGSGSGTEFTLTISSLQSEDFAVYYCQQYDDWPFTFGGGTKVEIK VH 2: QVELVESGGGLVQPGGSLRLSCAASGFTFSSYGMSWVRQAPGKGLEWVSGISSLGSTTYYADSVKGRFTISRDNSKNTLYLQMNSLRAEDTAVYYCARTGSPGTFMHGDHWGQGTLVTVSS VL 2: DIQMTQSPSSLSASVGDRVTITCRASQDINNYLSWYQQKPGKAPKLLIYGASNLQSGVPSRFSGSGSGTDFTLTISSLQPEDFAVYYCQQYYGRPTTFGQGTKVEIK | ~20 | – |
| A44-TriNKET-CAIX (ADI-27744 and a CAIX-binding domain) (bispecific antibody, V domains shown) VH 1: not shown VL 1: DIQMTQSPSSVSASVGDRVTITCRASQGIDSWLAWYQQKPGKAPKLLIYAASSLQSGVPSRFSGSGSGTDFTLTISSLQPEDFATYYCQQGVSYPRTFGGGTKVEIK VH 2: QVELVESGGGLVQPGGSLRLSCAASGFTFSSYGMSWVRQAPGKGLEWVSGISSLGSTTYYADSVKGRFTISRDNSKNTLYLQMNSLRAEDTAVYYCARTGSPGTFMHGDHWGQGTLVTVSS VL 2: DIQMTQSPSSLSASVGDRVTITCRASQDINNYLSWYQQKPGKAPKLLIYGASNLQSGVPSRFSGSGSGTDFTLTISSLQPEDFAVYYCQQYYGRPTTFGQGTKVEIK | ~20 | – |
